As a reminder, the IC50 is the concentration that inhibits the measured activity by half. The low end stands for inhibition by little substance, the high end for a need for much substance.

Read-outs that look alike come from different tables or passages of the source. Square brackets hold non-standard residues; d marks the D form. Ends that are not written are not given here. hArg = N=C(N)NCCCC[C@H](N)C(=O)O; Aib = CC(C)(N)C(=O)O

Assay [1] deals with wild-type human PTH/PTHrP receptor (hP1R-WT) (human) (UniProt Q03431). Nature of the assay: cell-based or functional assay.
The target is the same in assay [2]. Put plainly: competition binding, 125I-[M]PTH(1-21) tracer, HKRK-B28 cells.
Assay [3] has as its target T1, wild-type human PTH/PTHrP receptor (hP1R-WT) (human, UniProt Q03431 27-593).
T1 sequence (looked up): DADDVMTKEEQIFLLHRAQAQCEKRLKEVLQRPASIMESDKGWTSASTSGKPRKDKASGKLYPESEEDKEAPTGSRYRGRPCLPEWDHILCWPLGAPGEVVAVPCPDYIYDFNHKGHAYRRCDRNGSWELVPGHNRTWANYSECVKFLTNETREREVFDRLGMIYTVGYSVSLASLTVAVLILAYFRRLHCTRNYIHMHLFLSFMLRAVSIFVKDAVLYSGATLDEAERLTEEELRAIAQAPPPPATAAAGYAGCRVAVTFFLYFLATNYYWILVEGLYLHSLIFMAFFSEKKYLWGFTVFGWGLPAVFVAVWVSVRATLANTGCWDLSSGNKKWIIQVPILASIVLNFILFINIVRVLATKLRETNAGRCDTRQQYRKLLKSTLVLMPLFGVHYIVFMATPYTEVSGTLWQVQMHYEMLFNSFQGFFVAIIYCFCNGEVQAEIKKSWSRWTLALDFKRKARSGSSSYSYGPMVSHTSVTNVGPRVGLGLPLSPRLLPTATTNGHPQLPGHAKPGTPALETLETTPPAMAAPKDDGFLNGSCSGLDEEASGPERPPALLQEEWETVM
Put plainly: cell-based or functional assay.

The target of assay [4] is T1, wild-type human PTH/PTHrP receptor …. Nature of the assay: cell-based or functional assay. This is another data set of the same source.
The target in assay [5] is T2, truncated human P1R deleted for residues (24-181) (hP1R-delNt) (human, UniProt Q03431 182-593).
T2 sequence (looked up): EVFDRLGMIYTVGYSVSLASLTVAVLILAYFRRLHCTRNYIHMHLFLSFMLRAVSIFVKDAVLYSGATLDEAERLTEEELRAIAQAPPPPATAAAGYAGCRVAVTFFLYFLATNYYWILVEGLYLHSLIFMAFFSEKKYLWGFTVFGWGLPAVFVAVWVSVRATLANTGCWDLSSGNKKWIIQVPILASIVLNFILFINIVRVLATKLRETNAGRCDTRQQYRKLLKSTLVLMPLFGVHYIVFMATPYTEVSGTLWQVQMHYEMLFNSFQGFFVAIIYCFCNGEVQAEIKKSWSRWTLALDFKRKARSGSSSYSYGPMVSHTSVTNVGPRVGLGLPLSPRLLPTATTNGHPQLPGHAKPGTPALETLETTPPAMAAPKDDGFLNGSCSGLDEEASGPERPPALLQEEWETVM
Put plainly: cell-based or functional assay.

Assay [6] addresses T1, wild-type human PTH/PTHrP receptor …. Put plainly: competition binding, 125I-[M]PTH(1-21) tracer, HKRK-B28 cells, 4 h at 4 C. The protocol:
(§1) Competition Binding. Binding reactions were performed with HKRK-B28 cells or in COS-7 cells in 24-well plates. The cells were rinsed with 0.5 mL of binding buffer, and then treated successively with 100 μL binding buffer, 100 μL of binding buffer containing various amounts of unlabeled competitor ligand, and 100 μL of binding buffer containing ca. 100,000 cpm of ¹²⁵I-[M]PTH(1-21) or ¹²⁵I-[Aib^{1,3},M]PTH(1-21)} (ca. 26 fmol; final volume=300 μL). Incubations were 4 to 6 h at 4° C., at which time near equilibrium conditions were attained. Cells were then placed on ice, the binding medium was removed, and the monolayer was rinsed three times with 0.5 mL of cold binding buffer. The cells were subsequently lysed with 0.5 mL […] NaOH and counted for radioactivity. For each tracer and in each experiment, the non-specific binding was determined as the radioactivity that bound in the presence of the same unlabeled peptide at a concentration of 1 μM, and was ˜1% of total radioactivity added for each tracer. The maximum specific binding (B₀) was the total radioactivity bound in the absence of competing ligand, corrected for nonspecific binding, and for each tracer, ranged from 8% to 20% of the total radioactivity added. Nonlinear regression was used to calculate binding IC₅₀ values (see below). Scatchard transformations of homologous competition binding data derived from studies with 26 fmol of ¹²⁵I-[Aib^{1,3},M]PTH(1-21) were employed for estimations of apparent equilibrium dissociation constant (kDapps) and total number of ligand binding sites (Bₘₐₓ), assuming a single class of binding sites and equal affinities of the iodinated and non iodinated ligand.
Peptides PTH(1-34) ([Nle^{8,21}, Tyr³⁴]PTH(1-34)amide), [M]PTH(1-14) (M = Ala^{3,12}, Gln¹⁰, Har¹¹, Trp¹⁴), and [M]PTH(1-14 analogs, or C-terminally truncated derivatives thereof, containing α-aminoisobutyric acid (Aib) substitutions at the indicated positions were functionally evaluated in HKRK-B28 cells. “M” in [Aib^{1,3}, M]PTH(1-21) = Nle⁸, Gln¹⁰, Har¹¹, Ala¹², Trp¹⁴, Arg¹⁹ and Tyr²¹. The basal cAMP values (not subtracted) were 4.0 ± 0.1 pmole/well (n = 10). Peptides were based on the rat PTH sequence and were carboxy-amidated. Competition binding analyses were performed with ¹²⁵I-[M]PTH(1-21 )amide (Ala^{1,3}) as tracer for 4 h at 4° C. Data are means (±S.E.M.) Of the number of experiments indiated (n).

Assay [7] has the same target. Nature of the assay: competition binding, 125I-[Aib1,3,M]PTH(1-21) tracer, COS-7 cells expressing hP1R-WT. The protocol:
as §1

For assay [8], the target named is T2, truncated human P1R deleted for …. Nature of the assay: competition binding, 125I-[Aib1,3,M]PTH(1-21) tracer, COS-7 cells expressing hP1R-delNt. The protocol: (§2) Stock solutions of EGTA/trypsin and antibiotics were from GIBCO; fetal bovine serum was from Hyclone Laboratories (Logan, Utah). […] All cells, in 24-well plates, were treated with fresh media and shifted to 33° C. for 12 to 24 h prior to assay.
as §1

Assay [9] concerns the target T1, wild-type human PTH/PTHrP receptor …. Put plainly: cell-based or functional assay. This is another data set of the same source.
Assay [10] has as its target T2, truncated human P1R deleted for …. Put plainly: competition binding vs 125I-[Aib1,3,M]PTH(1-21), COS-7 cells with hP1R-delNt. The protocol:
as §2, §1

Assay [11] has as its target T1, wild-type human PTH/PTHrP receptor …. Put plainly: competition binding vs 125I-[Aib1,3,M]PTH(1-21), COS-7 cells with hP1R-WT.
Assay [12] addresses T2, truncated human P1R deleted for …. Nature of the assay: cell-based or functional assay. The source holds these as a separate data set.
The target of assay [13] is T1, wild-type human PTH/PTHrP receptor …. Put plainly: cell-based or functional assay. This is another data set of the same source.
For assay [14], the target named is T2, truncated human P1R deleted for …. Nature of the assay: cell-based or functional assay. The source holds these as a separate data set.

B1: [Aib^5,M]PTH(1-14) (peptide)
peptide: AVAE[Aib]QLMHQ[hArg]AKW-NH2
modifications: N-terminus assumed
SMILES: CSCC[C@H](NC(=O)[C@H](CC(C)C)NC(=O)[C@H](CCC(N)=O)NC(=O)C(C)(C)NC(=O)[C@H](CCC(=O)O)NC(=O)[C@H](C)NC(=O)[C@@H](NC(=O)[C@H](C)N)C(C)C)C(=O)N[C@@H](Cc1c[nH]cn1)C(=O)N[C@@H](CCC(N)=O)C(=O)N[C@@H](CCCCNC(=N)N)C(=O)N[C@@H](C)C(=O)N[C@@H](CCCCN)C(=O)N[C@@H](Cc1c[nH]c2ccccc12)C(N)=O
With B1, in [1], the cAMP EC50 came to 66000 nM and the cAMP EMax(obs.) was 169 pmole/well. In assay [2], the fold reduction in affinity relative to [M]PTH(1-14) was less than 10 fold.

B2: [Ala^3,12,Gln^10,Har^11,Trp^14]PTH(1-14)amide (peptide)
peptide: AVAEIQLMHQ[hArg]AKW-NH2
modifications: N-terminus assumed
SMILES: CC[C@H](C)[C@H](NC(=O)[C@H](CCC(=O)O)NC(=O)[C@H](C)NC(=O)[C@@H](NC(=O)[C@H](C)N)C(C)C)C(=O)N[C@@H](CCC(N)=O)C(=O)N[C@@H](CC(C)C)C(=O)N[C@@H](CCSC)C(=O)N[C@@H](Cc1c[nH]cn1)C(=O)N[C@@H](CCC(N)=O)C(=O)N[C@@H](CCCCNC(=N)N)C(=O)N[C@@H](C)C(=O)N[C@@H](CCCCN)C(=O)N[C@@H](Cc1c[nH]c2ccccc12)C(N)=O
notes: X = Har; also called [M]PTH(1-14); 621 [M]PTH(1-14)
For the molecule B2, the “cAMP EC50” value in assay [3] was 100 nM; in [4], 49 nM; in assay [5], 40 nM. In addition, the “cAMP EMax(obs.)” value in assay [3] is 270 pmole/well; in assay [4], 240 pmole/well; in assay [5], 220 pmole/well. For the same molecule, in assay [4], the “PLC EC50” value turned out to be 4700 nM. The “PLC EMAX(obs.)” value in assay [4] was found to be 3.9 foldxbasal. The IC50 in assay [6] came out at 13000 nM; in [7], 20000 nM; in assay [8] it was 17400 nM. Moreover, the “cAMP EC50 in SaOS-2 cells” value in assay [9] came to 340 nM.

B3: [Nle^8,21,Tyr^34]PTH(1-34)amide (rat sequence) (peptide)
peptide: AVSEIQLXHNLGKHLASVERXQWLRKKLQDVHNY
modifications: Nle (norleucine) at 8 and 21; C-terminal amide
notes: also called 92 PTH(1-34); 92.5 PTH(1-34)
For B3, the “cAMP EC50” value amounted to 2.5 nM in assay [3], 1.4 nM in assay [4] and 680 nM in assay [5]. Besides, the “cAMP EMax(obs.)” value in assay [3] was determined as 280 pmole/well; in assay [4], 240 pmole/well; in [5], 220 pmole/well. Moreover, the “PLC EC50” value in [4] stood at 17 nM. In [4], the “PLC EMAX(obs.)” value is 4.2 foldxbasal. In addition, the 50% inhibitory concentration (IC50) in [6] was determined as 18 nM; in assay [7] it was 12 nM. The binding result in assay [10] is given as “no binding”. In addition, in assay [9], the “cAMP EC50 in SaOS-2 cells” value turned out to be 0.2 nM.

B4: [Aib^1,3,Gln^10]PTH(1-10) (peptide)
peptide: [Aib]V[Aib]EIQLMHQ-NH2
modifications: N-terminus assumed
SMILES: CC[C@H](C)[C@H](NC(=O)[C@H](CCC(=O)O)NC(=O)C(C)(C)NC(=O)[C@@H](NC(=O)C(C)(C)N)C(C)C)C(=O)N[C@@H](CCC(N)=O)C(=O)N[C@@H](CC(C)C)C(=O)N[C@@H](CCSC)C(=O)N[C@@H](Cc1c[nH]cn1)C(=O)N[C@@H](CCC(N)=O)C(N)=O
notes: also called 684 [Aib^1,3, M]PTH (1-10); [Aib^1,3,M]PTH(1-10)
Consider B4, for which the “cAMP EC50” value in assay [3] came to 16000 nM; in assay [4], 100000 nM; in assay [5] it was 53000 nM. Besides, the “cAMP EMax(obs.)” value in assay [3] amounted to 111 pmole/well; in [4], 120 pmole/well; in [5], 84 pmole/well. For the same molecule, the binding result in assay [11] and in assay [10] was “no binding” throughout.

As to [Aib]V[Aib]EIQLMHQ[hArg]AKWLNSMRRVEWLRKKLQDVHNY-NH2 [[Aib^1,3,Gln^10,Har^11,Ala^12,Trp^14,Arg^19,Tyr^34]hPTH(1-34)], the “cAMP EC50” value in assay [12] is 1.9 nM.

For the molecule AVSEIQLMHNLGKH-NH2 (also called 521 PTH(1-14)) [native PTH(1-14) (rat sequence, amide)], in [4], the “cAMP EC50” value was 90000 nM and the “cAMP EMax(obs.)” value amounted to 140 pmole/well. In addition, in assay [5], the “cAMP EC50” value is 140000 nM and the “cAMP EMax(obs.)” value was found to be 110 pmole/well. Further, the binding result in assay [10] is on record as “no binding”.

B5: [Aib^1,3,M]PTH(1-11) (peptide)
peptide: [Aib]V[Aib]EIQLMHQ[hArg]-NH2
modifications: N-terminus assumed
SMILES: CC[C@H](C)[C@H](NC(=O)[C@H](CCC(=O)O)NC(=O)C(C)(C)NC(=O)[C@@H](NC(=O)C(C)(C)N)C(C)C)C(=O)N[C@@H](CCC(N)=O)C(=O)N[C@@H](CC(C)C)C(=O)N[C@@H](CCSC)C(=O)N[C@@H](Cc1c[nH]cn1)C(=O)N[C@@H](CCC(N)=O)C(=O)N[C@@H](CCCCNC(=N)N)C(N)=O
notes: also called 682 [Aib^1,3, M]PTH (1-11); [Aib^1,3,Gln^10,Har^11]PTH(1-11)
B5: the figures for the “cAMP EC50” value in assay [3], in [4] and in [5] were 4 nM, 2.1 nM and 2 nM, respectively. In addition, the “cAMP EMax(obs.)” value was determined as 243 pmole/well in assay [3], 190 pmole/well in assay [4] and 220 pmole/well in assay [5]. The half-inhibitory concentration (IC50) in assay [6] was 970 nM; in assay [7] it was 16000 nM; in assay [8], 13000 nM.

As to [Aib]V[Aib]EIQLMHNLGKHLNSMERVEWLRKKLQDVHNY-NH2 [[Aib^1,3,Tyr^34]-hPTH(1-34)], the “cAMP EC50” value in [13] came to 0.67 nM; in assay [14] it was 43 nM.

For the origin of these results see patent US20050026839A1 (GENERAL HOSPITAL, published 2005).
